Columns and labels:
FcγRIa = molecular target: T1, FcγRIa (human, UniProt P12314 16-292); assay: SPR, relative to GpH7-A5/GpH7-B3/GpL16-k0 =100
T1 construct: extracellular domain; also called 1a

FcγRIIIa [1] = molecular target: T2, FcγRIIIa (human, UniProt P08637 17-208); assay: SPR, relative to GpH7-A5/GpH7-B3/GpL16-k0 =100
T2 construct: extracellular domain; also called 3a
T2 sequence (P08637 other isoform, or with tags, fused parts or gaps): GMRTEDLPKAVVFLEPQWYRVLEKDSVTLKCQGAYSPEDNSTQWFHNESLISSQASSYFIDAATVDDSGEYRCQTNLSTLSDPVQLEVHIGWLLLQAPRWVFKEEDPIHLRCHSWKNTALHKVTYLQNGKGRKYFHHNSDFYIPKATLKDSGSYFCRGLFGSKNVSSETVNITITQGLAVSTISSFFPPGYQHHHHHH

FcγRIIa(R) = molecular target: T3, FcγRIIa(R) (human, UniProt P12318 34-217); assay: SPR, relative to GpH7-A5/GpH7-B3/GpL16-k0 =100
T3 construct: extracellular domain; also called 2aR
T3 sequence: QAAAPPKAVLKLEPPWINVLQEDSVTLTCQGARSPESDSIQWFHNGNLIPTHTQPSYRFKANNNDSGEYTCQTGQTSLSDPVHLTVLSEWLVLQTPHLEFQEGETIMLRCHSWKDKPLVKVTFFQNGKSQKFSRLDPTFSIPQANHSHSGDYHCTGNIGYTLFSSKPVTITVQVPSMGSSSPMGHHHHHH

FcγRIIb = molecular target: T4, FcγRIIb (human, UniProt P31994 43-217); assay: SPR, relative to GpH7-A5/GpH7-B3/GpL16-k0 =100
T4 construct: extracellular domain; also called 2b
T4 sequence: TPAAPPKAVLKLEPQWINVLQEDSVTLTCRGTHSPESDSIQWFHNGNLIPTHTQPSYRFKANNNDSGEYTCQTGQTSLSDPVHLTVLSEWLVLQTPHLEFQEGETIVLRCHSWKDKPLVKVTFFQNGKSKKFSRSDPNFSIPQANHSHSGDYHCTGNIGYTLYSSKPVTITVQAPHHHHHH

FcγRIIa(H) = molecular target: T5, FcγRIIa(H) (human, UniProt P12318 34-217); assay: SPR, relative to GpH7-A5/GpH7-B3/GpL16-k0 =100
T5 construct: extracellular domain; also called 2aH
T5 sequence: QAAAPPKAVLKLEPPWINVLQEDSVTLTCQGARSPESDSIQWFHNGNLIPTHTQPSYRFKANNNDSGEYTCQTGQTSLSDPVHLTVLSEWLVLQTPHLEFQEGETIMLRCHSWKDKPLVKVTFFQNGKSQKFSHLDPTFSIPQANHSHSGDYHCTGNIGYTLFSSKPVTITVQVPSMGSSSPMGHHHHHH

FcγRIIIaV = molecular target: T6, FcγRIIIaV (human, UniProt P08637 17-208); assay: SPR (Biacore), antibody captured, FcγR as analyte, 1:1 Langmuir fit
T6 construct: extracellular domain
T6 sequence (P08637 other isoform, or with tags, fused parts or gaps): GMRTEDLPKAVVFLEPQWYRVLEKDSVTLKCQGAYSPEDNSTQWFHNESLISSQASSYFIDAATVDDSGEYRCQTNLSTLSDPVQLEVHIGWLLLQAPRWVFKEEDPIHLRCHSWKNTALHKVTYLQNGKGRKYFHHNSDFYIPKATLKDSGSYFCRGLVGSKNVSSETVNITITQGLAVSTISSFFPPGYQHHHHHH

FcγRIIIa [2] = molecular target: T7, FcγRIIIa (human, UniProt P08637 17-208); assay: SPR (Biacore T100), antibody captured on protein L chip, FcγRIIIa as analyte, TBS(+), 25 C, 1:1 Langmuir fit
T7 construct: extracellular domain; also called 3a
Procedure: Specifically, their interaction with FcγRIIIa was analyzed using BiaCore™ T100 surface plasmon resonance system (GE Healthcare Japan Corp.). The running buffer used was the TBS(+) solution used in the preceding paragraph. The assay temperature was set to 25° C. Protein L was immobilized onto Series S Sensor Chip CM4 (GE Healthcare Japan Corp.) by the amine coupling method to prepare a chip. Each antibody of interest was captured onto the protein L-immobilized chip and allowed to interact with FcγRIIIa diluted with a running buffer. The antibody captured on the chip was washed off through the reaction of 10 mM glycine-HCl (pH 1.5) to regenerate the chip, which was repetitively used.
Each antibody was evaluated for its binding activity against FcγRIIIa with binding activity against FcγRIIIa and dissociation constant for FcγRIIIa as main indexes. […] Specifically, a sensorgram obtained by assay using BiaCore™ surface plasmon resonance Evaluation Software was globally fit into the 1:1 Langmuir model to calculate an association rate constant ka (L/mol/s) and a dissociation rate constant kd (1/s). From these values, the dissociation constant KD (mol/L) was calculated.

T1 sequence (P12314 other isoform, or with tags, fused parts or gaps): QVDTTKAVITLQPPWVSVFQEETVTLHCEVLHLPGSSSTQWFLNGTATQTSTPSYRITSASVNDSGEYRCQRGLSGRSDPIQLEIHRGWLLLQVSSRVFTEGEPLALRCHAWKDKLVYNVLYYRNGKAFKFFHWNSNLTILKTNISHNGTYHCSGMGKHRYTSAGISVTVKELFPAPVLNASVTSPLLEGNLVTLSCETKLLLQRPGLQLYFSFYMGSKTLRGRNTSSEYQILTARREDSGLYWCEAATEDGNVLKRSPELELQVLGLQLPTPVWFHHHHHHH

B1: GpH7-A5/GpH7-B3 variant A327_01G/GpL16-k0 (antibody, human IgG1, kappa)
heavy 1: not shown
heavy 2: not shown
light: DIVMTQSPLSLPVTPGEPASISCQASESLVHSNRNTYLHWYLQKPGQSPQLLIYKVSNRFSGVPDRFSGSGSGTDFTLKISRVEAEDVGVYYCSQNTHVPPTFGQGTKVEIERTVAAPSVFIFPPSDEQLKSGTASVVCLLNNFYPREAKVQWKVDNALQSGNSQESVTEQDSKDSTYSLSSTLTLSKADYEKHKVYACEVTHQGLSSPVTKSFNRGEC
notes: He Ab: heterodimerized IgG1, one H chain mutated
In the case of B1, the “He/Con 1a” value (FcγRIa) is reported as 101%, the “He/Con 3a” value (FcγRIIIa [1]) is reported as 74.4% and the “He/Con 2aR” value (FcγRIIa(R)) is reported as 126%. The “He/Con 2b” value (FcγRIIb) was 144% and the “He/Con 2aH” value (FcγRIIa(H)) was 115%.

B2: GpH7-A5/GpH7-B3 variant L328_10E/GpL16-k0 (antibody, human IgG1, kappa)
heavy 1: not shown
heavy 2: not shown
light: DIVMTQSPLSLPVTPGEPASISCQASESLVHSNRNTYLHWYLQKPGQSPQLLIYKVSNRFSGVPDRFSGSGSGTDFTLKISRVEAEDVGVYYCSQNTHVPPTFGQGTKVEIERTVAAPSVFIFPPSDEQLKSGTASVVCLLNNFYPREAKVQWKVDNALQSGNSQESVTEQDSKDSTYSLSSTLTLSKADYEKHKVYACEVTHQGLSSPVTKSFNRGEC
notes: as for B1
In the case of B2, the “He/Con 1a” value (FcγRIa) is reported as 104%, the “He/Con 3a” value (FcγRIIIa [1]) is reported as 54.9% and the “He/Con 2aR” value (FcγRIIa(R)) is reported as 136%. For the same binder, the “He/Con 2b” value (FcγRIIb) was 215% and the “He/Con 2aH” value (FcγRIIa(H)) was 65.7%.

B3: GpH7-A5/GpH7-B3 variant S324_05P/GpL16-k0 (antibody, human IgG1, kappa)
heavy 1: not shown
heavy 2: not shown
light: DIVMTQSPLSLPVTPGEPASISCQASESLVHSNRNTYLHWYLQKPGQSPQLLIYKVSNRFSGVPDRFSGSGSGTDFTLKISRVEAEDVGVYYCSQNTHVPPTFGQGTKVEIERTVAAPSVFIFPPSDEQLKSGTASVVCLLNNFYPREAKVQWKVDNALQSGNSQESVTEQDSKDSTYSLSSTLTLSKADYEKHKVYACEVTHQGLSSPVTKSFNRGEC
notes: as for B1
For B3, the “He/Con 1a” value (FcγRIa) was 97.8%, the “He/Con 3a” value (FcγRIIIa [1]) was 72.3% and the “He/Con 2aR” value (FcγRIIa(R)) was 94.6%. For the same binder, the “He/Con 2b” value (FcγRIIb) was 106% and the “He/Con 2aH” value (FcγRIIa(H)) was 57.8%.

B4: GpH7-A5/GpH7-B3 variant S324_20W/GpL16-k0 (antibody, human IgG1, kappa)
heavy 1: not shown
heavy 2: not shown
light: DIVMTQSPLSLPVTPGEPASISCQASESLVHSNRNTYLHWYLQKPGQSPQLLIYKVSNRFSGVPDRFSGSGSGTDFTLKISRVEAEDVGVYYCSQNTHVPPTFGQGTKVEIERTVAAPSVFIFPPSDEQLKSGTASVVCLLNNFYPREAKVQWKVDNALQSGNSQESVTEQDSKDSTYSLSSTLTLSKADYEKHKVYACEVTHQGLSSPVTKSFNRGEC
notes: as for B1
With B4 the “He/Con 1a” value (FcγRIa) was 108%, the “He/Con 3a” value (FcγRIIIa [1]) was 111% and the “He/Con 2aR” value (FcγRIIa(R)) was 106%. For the same binder, the “He/Con 2b” value (FcγRIIb) was 114% and the “He/Con 2aH” value (FcγRIIa(H)) was 114%.

B5: H240-G1dE/H240-G1dE/L73 (antibody, human IgG1, kappa)
heavy: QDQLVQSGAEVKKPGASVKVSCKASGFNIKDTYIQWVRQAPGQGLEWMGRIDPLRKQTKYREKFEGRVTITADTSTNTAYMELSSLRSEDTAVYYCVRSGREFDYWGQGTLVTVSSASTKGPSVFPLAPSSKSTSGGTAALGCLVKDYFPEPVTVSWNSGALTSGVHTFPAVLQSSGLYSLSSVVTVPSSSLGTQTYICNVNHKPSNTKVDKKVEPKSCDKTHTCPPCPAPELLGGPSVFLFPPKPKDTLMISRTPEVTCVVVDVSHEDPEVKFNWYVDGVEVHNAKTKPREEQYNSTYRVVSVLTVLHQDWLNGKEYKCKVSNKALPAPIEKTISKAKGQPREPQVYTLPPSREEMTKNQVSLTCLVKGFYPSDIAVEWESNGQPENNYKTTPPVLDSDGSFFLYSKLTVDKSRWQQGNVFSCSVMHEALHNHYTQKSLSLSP
light: DIQMTQSPSSLSASVGDRVTITCRASQDIHKYIAWYQQKPGQAPRLLIQYTSTLQPGVPSRFSGSGSGTDYTFTISSLQPEDIATYYCLQYEQLRTFGGGTKVEIKRTVAAPSVFIFPPSDEQLKSGTASVVCLLNNFYPREAKVQWKVDNALQSGNSQESVTEQDSKDSTYSLSSTLTLSKADYEKHKVYACEVTHQGLSSPVTKSFNRGEC
notes: anti-EREG antibody with constant regions derived from human natural IgG1; also called IgG1; naturally occurring IgG1
With B5 the Kd (FcγRIIIaV) was 340 nM and the Kd (FcγRIIIa [2]) was 290 nM.

B6: H240-Kn125-ma1/H240-Hl076/L73 (antibody, human IgG1, kappa)
heavy 1: QDQLVQSGAEVKKPGASVKVSCKASGFNIKDTYIQWVRQAPGQGLEWMGRIDPLRKQTKYREKFEGRVTITADTSTNTAYMELSSLRSEDTAVYYCVRSGREFDYWGQGTLVTVSSASTKGPSVFPLAPSSKSTSGGTAALGCLVKDYFPEPVTVSWNSGALTSGVHTFPAVLQSSGLYSLSSVVTVPSSSLGTQTYICNVNHKPSNTKVDKKVEPKSCDKTHTCPPCPAPELLGGPSVFLFPPKPKDTLMISRTPEVTCVVVDVSHEEPEVKFNWYVDGVEVHNAKTKPREEQYNSTYRVVSVLTVLHQDWLNGKEYKCKVSNDALPMPIEETISKAKGQPREPQVYTLPPSRCELTKNQVSLSCAVKGFYPSDIAVEWESNGQPENNYKTTPPVLDSDGSFFLVSKLTVDKSRWQQGNVFSCSVMHEALHNHYTQKSLSLSP
heavy 2: QDQLVQSGAEVKKPGASVKVSCKASGFNIKDTYIQWVRQAPGQGLEWMGRIDPLRKQTKYREKFEGRVTITADTSTNTAYMELSSLRSEDTAVYYCVRSGREFDYWGQGTLVTVSSASTKGPSVFPLAPSSKSTSGGTAALGCLVKDYFPEPVTVSWNSGALTSGVHTFPAVLQSSGLYSLSSVVTVPSSSLGTQTYICNVNHKPSNTKVDKKVEPKSCDKTHTCPPCPAPEYQWGPMVFLFPPKPKDTLMISRTPEVTCVVVDVSGCRGDCLEPEVKFNWYVDGVEVHNAKTKPREEQYNATYRVVSVLTVLHQDWLNGKEYKCKVSNKALPAPIEKTISKAKGQPREPQVCTLPPSRDELTKNQVSLWCLVKGFYPSDIAVEWESNGQPENNYKTTPPVLDSDGSFFLYSKLTVDKSRWQQGNVFSCSVMHEALHNHYTQKSLSLSP
light: DIQMTQSPSSLSASVGDRVTITCRASQDIHKYIAWYQQKPGQAPRLLIQYTSTLQPGVPSRFSGSGSGTDYTFTISSLQPEDIATYYCLQYEQLRTFGGGTKVEIKRTVAAPSVFIFPPSDEQLKSGTASVVCLLNNFYPREAKVQWKVDNALQSGNSQESVTEQDSKDSTYSLSSTLTLSKADYEKHKVYACEVTHQGLSSPVTKSFNRGEC
notes: heterodimerized anti-EREG antibody with the RGD peptide inserted in a loop region of the H240-Kn125 chain; also called H240-Kn125-ma1/H240-HI076/L73
Binder B6 has a Kd (FcγRIIIa [2]) of 160 nM.

Source: patent publication US20260167699A1 (Chugai, published 2026)
